According to article PMC7181604, “Arabidopsis FHY3 and FAR1 integrate light and strigolactone signaling to regulate branching”:

Tests used:
[1] = molecular target: T1, His-FHY3-I (Arabidopsis thaliana, UniProt Q9LIE5 1-251); experiment: EMSA; FHY3-I alone; Beyotime EMSA kit, manufacturer's protocol (binding buffer not stated); proteins stored in 5 mM Tris-Cl pH 8.0, 50 mM KCl; settings: protein: recombinant; tags: 6xHis (pET28a); label: biotin; blunt
T1 sequence: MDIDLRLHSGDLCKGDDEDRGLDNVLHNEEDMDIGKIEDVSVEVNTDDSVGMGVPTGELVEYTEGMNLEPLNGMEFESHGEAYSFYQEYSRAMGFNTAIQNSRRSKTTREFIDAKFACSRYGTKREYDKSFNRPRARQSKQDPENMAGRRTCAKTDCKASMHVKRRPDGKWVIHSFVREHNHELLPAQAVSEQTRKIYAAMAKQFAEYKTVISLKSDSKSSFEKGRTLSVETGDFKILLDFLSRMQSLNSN

[2] = molecular target: T2, GST-SPL15SBP (Arabidopsis thaliana, UniProt Q9M2Q6 56-133); experiment: EMSA; Beyotime EMSA kit, manufacturer's protocol (binding buffer not stated); proteins stored in 5 mM Tris-Cl pH 8.0, 50 mM KCl; settings: protein: recombinant; tags: GST (N-terminal, pGEX-4T-1); label: biotin; blunt
T2 sequence: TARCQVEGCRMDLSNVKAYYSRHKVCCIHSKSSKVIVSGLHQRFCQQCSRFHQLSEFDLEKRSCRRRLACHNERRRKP

[3] = molecular target: T3, GST-SPL9SBP (Arabidopsis thaliana, UniProt Q700W2 71-148); experiment: as above; settings: protein: recombinant; tags: GST (N-terminal, pGEX-4T-1); label: biotin; blunt
T3 sequence: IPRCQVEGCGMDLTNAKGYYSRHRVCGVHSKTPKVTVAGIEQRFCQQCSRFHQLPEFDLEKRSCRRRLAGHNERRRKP

B1: BRC1 promoter EMSA probe (PB01/PB02) (dsDNA)
DNA 1: GAAGAAGCCAGCGAGTCCAACCATTATAGTCATGTGGTCCTCCTGATAATTGCAGGCCTA
DNA 2: TAGGCCTGCAATTATCAGGAGGACCACATGACTATAATGGTTGGACTCGCTGGCTTCTTC
[1]
  binding result: no binding
[2]
  binding result: binds
[3]
  binding result: binds
